Values quoted from earlier work as cited in article PMC3377446.

Target: PDL1 (Homo sapiens) (UniProt Q9NZQ7)
Chain of UniProt Q9NZQ7 (Q9NZQ7 19-238): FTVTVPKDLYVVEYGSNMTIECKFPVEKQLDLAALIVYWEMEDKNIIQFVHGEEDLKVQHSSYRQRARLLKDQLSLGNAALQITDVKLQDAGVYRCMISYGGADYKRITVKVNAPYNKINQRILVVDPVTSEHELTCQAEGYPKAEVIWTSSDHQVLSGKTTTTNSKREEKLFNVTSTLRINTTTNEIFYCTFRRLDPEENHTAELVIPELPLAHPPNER

For CD80 (from UniProt P33681), the Kd is listed as 1400 nM.
